According to patent publication US20030087328A1:

How the values were obtained:
[1] = tested on: T1, phosphorylated Src-2-specific substrate optical probe (SEQ. ID. NO: 29)
T1 sequence: RRFHSRRRR

[2] = tested on: T2, phosphorylated abl-specific substrate optical probe (SEQ. I.D. No. 4)
T2 sequence: AEAIYAAPLK

[3] = target: protein kinase A; assay: cell-based or functional assay
[4] = tested on: T3, Src-1 optical probe (GEEEIYGEIEK, SEQ. ID. NO: 3)
T3 sequence: GEEEIYGEIEK

[5] = tested on: T4, Src-2 optical probe (GEEEIYGVIEK, SEQ. ID. NO: 29), non-phosphorylated
T4 sequence: GEEEIYGVIEK

[6] = target: T5, abl-specific substrate optical probe (AEAIYAAPL, SEQ. ID. NO: 4), non-phosphorylated
T5 chain: AEAIYAAPLK

protein tyrosine phosphatase-B (PTP-B) agarose (Upstate Biotechnology)
Kcat/Km (dephosphorylation) [1]: nearly 10^8 M^-1sec^-1 | apparent Km (Michaelis-Menten plot, dephosphorylation) [1]: the apparent Km for the Src-2optical probe is 1.3 µM | kcat (dephosphorylation) [1]: the kcat is 79 sec^-1 | relative rate of dephosphorylation [1]: the Src-2 substrate is more readily de-phosphorylated than the abl substrate | relative rate of dephosphorylation [2]: the Src-2 substrate is more readily de-phosphorylated than the abl substrate

PKI (substrate competitive inhibitor of protein kinase A) (peptide)
460/530 Emission Ratio, Kinase + the inhibitor PKI (2.8 µM) (negative control 11.67, positive control 2.11) (460/530 emission ratio) [3]: 11.7

Src kinase (Upstate Biotechnology)
apparent Km (fluorescence measurements after protease incubation) [4]: 11 µM and 19 µM respectively | apparent Km (fluorescence measurements after protease incubation) [5]: 11 µM and 19 µM respectively

B1: Recombinant v-Abl kinase (protein)
chain: YITPVNSLEKHSWYHGPVSRNAAEYLLSSGINGSFLVRESESSPGQRSISLRYEGRVYHYRINTASDGKLYVSSESRFNTLAELVHHHSTVADGLITTLHYPAPKRNKPTIYGVSPNYDKWEMERTDITMKHKLGGGQYGEVYEGVWKKYSLTVAVKTLKEDTMEVEEFLKEAAVMKEIKHPNLVQLLGVCTREPPFYIITEFMTYGNLLDYLRECNRQEVSAVVLLYMATQISSAMEYLEKKNFIHRDLAARNCLVGENHLVKVADFGLSRLMTGDTYTAHAGAKFPIKWTAPESLAYNKFSIKSDVWAFGVLLWEIATYGMSPYPGIDLSQVYELLEKDYRMERPEGCPEKVYELMRACWQWNPSDRPSFAEIHQAFETMFQESSISDEVEKELGKRGTRG
apparent Km for the substrate (kinetics of phosphorylation, FRET/chymotrypsin read-out) [6]: apparent Km for the substrate of 40 µM | turnover (kcat) of the optical probe [6]: The turnover of the optical probe by v-Abl was 9.5 sec^-1
